Experimental data as given in patent US20050100554A1 (published 2005).

Experiments:
[1] = target: T1, yeast Sec31p homolog (human, UniProt O94979 1-1220); experiment: Y2H; INT ID 408
T1 construct: also called KIAA0905; cbe_4383836
T1 sequence: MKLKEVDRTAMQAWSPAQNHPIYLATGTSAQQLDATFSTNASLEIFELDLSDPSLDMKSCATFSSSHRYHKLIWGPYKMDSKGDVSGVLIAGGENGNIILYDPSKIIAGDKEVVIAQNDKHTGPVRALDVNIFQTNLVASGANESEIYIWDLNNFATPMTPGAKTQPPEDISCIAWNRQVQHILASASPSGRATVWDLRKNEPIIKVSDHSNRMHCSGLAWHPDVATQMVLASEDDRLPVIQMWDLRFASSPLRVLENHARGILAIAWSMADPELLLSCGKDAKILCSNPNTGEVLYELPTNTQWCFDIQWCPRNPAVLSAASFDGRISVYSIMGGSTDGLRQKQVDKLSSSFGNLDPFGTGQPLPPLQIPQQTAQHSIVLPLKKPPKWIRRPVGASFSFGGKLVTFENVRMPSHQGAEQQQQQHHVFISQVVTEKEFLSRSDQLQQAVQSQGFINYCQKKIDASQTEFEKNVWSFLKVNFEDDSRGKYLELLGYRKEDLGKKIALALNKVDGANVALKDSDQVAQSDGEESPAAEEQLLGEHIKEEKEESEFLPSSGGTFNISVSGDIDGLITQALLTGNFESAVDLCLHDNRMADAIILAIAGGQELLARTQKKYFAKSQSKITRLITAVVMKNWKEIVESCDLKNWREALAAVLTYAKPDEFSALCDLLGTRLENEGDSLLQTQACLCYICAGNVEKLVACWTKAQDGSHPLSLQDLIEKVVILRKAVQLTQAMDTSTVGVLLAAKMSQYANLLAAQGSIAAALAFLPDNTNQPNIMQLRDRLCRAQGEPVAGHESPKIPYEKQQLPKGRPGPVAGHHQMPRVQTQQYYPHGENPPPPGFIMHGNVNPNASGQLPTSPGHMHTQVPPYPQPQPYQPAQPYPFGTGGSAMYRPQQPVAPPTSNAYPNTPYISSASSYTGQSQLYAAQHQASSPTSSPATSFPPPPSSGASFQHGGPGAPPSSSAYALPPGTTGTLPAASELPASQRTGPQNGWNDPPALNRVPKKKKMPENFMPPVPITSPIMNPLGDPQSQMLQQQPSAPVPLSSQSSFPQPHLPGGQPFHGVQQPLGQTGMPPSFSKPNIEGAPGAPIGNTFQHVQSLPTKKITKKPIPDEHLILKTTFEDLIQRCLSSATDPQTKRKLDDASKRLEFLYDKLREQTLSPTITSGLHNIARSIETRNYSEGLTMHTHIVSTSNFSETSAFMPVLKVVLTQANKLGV

[2] = target: T2, kinesin-associated protein 3 (human, UniProt Q92845 1-792); experiment: Y2H; INT ID 406
T2 construct: also called KIFAP3; cbe_4138433
T2 sequence (Q92845 whole entry): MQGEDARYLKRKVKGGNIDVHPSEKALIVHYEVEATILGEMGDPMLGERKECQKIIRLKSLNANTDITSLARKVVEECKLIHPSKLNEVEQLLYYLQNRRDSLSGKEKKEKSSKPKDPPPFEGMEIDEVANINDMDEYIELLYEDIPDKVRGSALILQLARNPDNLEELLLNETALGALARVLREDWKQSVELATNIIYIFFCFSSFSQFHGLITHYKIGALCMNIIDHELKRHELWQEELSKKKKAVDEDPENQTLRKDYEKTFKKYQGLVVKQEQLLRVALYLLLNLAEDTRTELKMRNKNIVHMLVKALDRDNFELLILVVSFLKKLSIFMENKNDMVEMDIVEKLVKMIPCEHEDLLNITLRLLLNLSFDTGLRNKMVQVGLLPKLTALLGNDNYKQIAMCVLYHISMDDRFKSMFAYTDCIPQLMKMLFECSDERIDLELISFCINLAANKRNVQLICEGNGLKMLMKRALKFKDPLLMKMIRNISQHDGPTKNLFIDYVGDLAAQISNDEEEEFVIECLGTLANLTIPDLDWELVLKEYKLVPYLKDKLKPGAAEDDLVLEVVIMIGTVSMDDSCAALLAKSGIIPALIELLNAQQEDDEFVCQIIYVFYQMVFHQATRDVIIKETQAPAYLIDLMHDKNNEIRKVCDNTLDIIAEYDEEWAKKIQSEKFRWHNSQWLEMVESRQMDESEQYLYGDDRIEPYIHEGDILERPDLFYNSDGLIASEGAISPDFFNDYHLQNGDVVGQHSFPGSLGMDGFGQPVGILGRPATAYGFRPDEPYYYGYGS

[3] = target: T3, hypothetical protein FLJ22729 (human, UniProt Q96QE5 203-360); experiment: Y2H; INT ID 398
T3 construct: also called cbe_1807361
T3 sequence: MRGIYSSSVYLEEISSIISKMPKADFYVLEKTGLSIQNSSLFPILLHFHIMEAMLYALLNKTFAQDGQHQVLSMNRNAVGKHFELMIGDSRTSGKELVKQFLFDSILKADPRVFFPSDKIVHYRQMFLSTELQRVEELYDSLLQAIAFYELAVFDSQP

[4] = target: T4, Prey1207 (human, UniProt Q6PI78 63-240); experiment: Y2H; INT ID 409
T4 construct: also called LOC157378; hypothetical protein BC017881
T4 sequence: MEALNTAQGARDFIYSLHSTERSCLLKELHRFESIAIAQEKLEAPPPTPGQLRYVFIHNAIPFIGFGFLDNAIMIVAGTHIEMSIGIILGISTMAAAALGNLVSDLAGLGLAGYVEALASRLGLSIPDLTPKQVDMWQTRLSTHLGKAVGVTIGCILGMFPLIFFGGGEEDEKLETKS

[5] = target: T5, CKM (human, UniProt P06732 1-381); experiment: Y2H; INT ID 403
T5 construct: also called MARK4
T5 sequence (P06732 whole entry): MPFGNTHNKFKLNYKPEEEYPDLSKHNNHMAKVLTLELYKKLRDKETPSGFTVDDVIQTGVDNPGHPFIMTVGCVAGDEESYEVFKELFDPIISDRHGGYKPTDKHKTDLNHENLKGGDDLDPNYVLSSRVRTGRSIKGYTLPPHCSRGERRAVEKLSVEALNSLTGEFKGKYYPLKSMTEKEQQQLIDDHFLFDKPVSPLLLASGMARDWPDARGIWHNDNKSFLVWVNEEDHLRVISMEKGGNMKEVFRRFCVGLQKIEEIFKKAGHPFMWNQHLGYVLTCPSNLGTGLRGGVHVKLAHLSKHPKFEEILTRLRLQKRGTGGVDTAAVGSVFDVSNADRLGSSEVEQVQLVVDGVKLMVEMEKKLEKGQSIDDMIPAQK

[6] = target: T6, TNNC1 (human, UniProt P63316 1-161); experiment: Y2H; INT ID 407
T6 construct: also called cbe_4267981

[7] = target: T7, tripartite motif-containing 29 (human, UniProt Q14134 1-588); experiment: Y2H; INT ID 404
T7 construct: also called TRIM29; cbe_3833533
T7 sequence: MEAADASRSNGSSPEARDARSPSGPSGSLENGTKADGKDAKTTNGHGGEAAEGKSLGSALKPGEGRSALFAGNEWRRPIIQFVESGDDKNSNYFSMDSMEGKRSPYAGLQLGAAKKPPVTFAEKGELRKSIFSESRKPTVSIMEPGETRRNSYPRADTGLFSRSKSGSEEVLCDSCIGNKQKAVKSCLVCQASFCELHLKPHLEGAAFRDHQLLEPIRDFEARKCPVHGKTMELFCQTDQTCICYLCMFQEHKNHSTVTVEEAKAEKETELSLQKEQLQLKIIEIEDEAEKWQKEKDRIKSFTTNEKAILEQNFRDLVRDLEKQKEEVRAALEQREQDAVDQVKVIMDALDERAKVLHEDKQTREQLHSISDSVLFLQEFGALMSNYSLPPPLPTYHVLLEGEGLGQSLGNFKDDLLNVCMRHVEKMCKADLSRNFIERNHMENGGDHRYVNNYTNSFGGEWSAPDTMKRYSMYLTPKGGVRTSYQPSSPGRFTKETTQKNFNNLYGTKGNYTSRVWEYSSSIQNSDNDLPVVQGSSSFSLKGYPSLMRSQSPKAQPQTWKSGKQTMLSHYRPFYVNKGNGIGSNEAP

[8] = target: the molecule itself; experiment: Y2H; INT ID 393

Measured: binding result

B1: Human Papillomavirus 1a E1-E4 (other)
chain: MADNKAPQGLLGLLQYTPTTQPYPRVTPPSNRRPSTTPNSQDRGRPRRSDKDSRKHLYADGLTDGEDPEVPEVEDEEKENQRPLGHPDLSLLRETLEVYTQRLKRDILQDLDDFCRKLGIHPWSV
notes: also called HPV 1a E1-E4; cbe_251740
binds: all assays above
